The assay has as its target mMC4R-NanoLuc and mMC4R-HaloTag homodimer (mouse) (UniProt P56450). As to the kind of experiment: cell-based or functional assay.

Chain of mMC4R-NanoLuc and mMC4R-HaloTag homodimer (mouse) (P56450 whole entry, chain 1 of 2): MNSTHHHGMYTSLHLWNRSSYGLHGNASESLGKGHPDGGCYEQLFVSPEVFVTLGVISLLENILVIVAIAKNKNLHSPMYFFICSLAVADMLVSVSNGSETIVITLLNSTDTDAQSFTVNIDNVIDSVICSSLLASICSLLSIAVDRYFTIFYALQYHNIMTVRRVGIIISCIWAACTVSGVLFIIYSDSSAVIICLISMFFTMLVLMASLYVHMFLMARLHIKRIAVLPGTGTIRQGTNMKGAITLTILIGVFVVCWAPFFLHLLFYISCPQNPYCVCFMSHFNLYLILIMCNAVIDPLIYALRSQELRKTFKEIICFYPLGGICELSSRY
Chain of mMC4R-NanoLuc and mMC4R-HaloTag homodimer (mouse) (P56450 whole entry, chain 2 of 2): as the sequence (P56450 whole entry, chain 1 of 2) above

With “α-MSH (from UniProt P01189 138-150) (ligand)”, the reduction in BRET signal at 10 µM compared to basal signal was determined as 15%.

These data come from patent US20180360972A1, “THERAPEUTIC COMPOUNDS” (REGENTS OF THE UNIVERSITY OF MINNESOTA, priority 2017, published 2018).
